From paper PMC10218266, “Unveiling CD59-Antibody Interactions to Design Paratope-Mimicking Peptides for Complement Modulation” (International Journal of Molecular Sciences, 2023)
Starred links: 1 amine or outer side, 2 acyl side, 3 side chain; linkers in the order of their positions; H or OH if unused. Positions of bridges follow the written chain, without caps; N, C: chain ends. Residues, ends and D or L forms follow the SMILES beside them. TBMB = c1c(C[*:1])cc(C[*:3])cc1C[*:2]

T1: recombinant human CD59 (Homo sapiens, UniProt P13987)
T1 construct: purchased Abcam ab134887
T1 sequence (P13987 26-128): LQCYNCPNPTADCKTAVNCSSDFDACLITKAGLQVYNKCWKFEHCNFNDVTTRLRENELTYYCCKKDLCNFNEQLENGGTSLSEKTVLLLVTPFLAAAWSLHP

T2: human recombinant CD59 protein (human, UniProt P13987 26-99)
T2 construct: CD59, human, recombinant commercial product (Abcam ab134887); also called commercial CD59 (ab134887); source: bought: Abcam (ab134887), recombinant
T2 sequence: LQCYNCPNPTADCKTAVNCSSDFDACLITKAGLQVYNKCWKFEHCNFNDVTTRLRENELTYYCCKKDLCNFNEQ


What was measured:
recombinant human CD59 [1] = molecular target: T1, recombinant human CD59; experiment: Surface Plasmon Resonance (SPR) direct binding assay; details: for kon: CD59 on CM5 chip, HBS-EP, 25 °C, 1:1 fit, average over tested peptide concentrations, read-out: ka
Description: (§1) The bicyclic peptides were tested for their ability to bind to recombinant human CD59. Direct binding assays were performed both using Surface Plasmon Resonance (SPR) and Biolayer Interferometry (BLI) label-free techniques (Figure 5). In both cases, after immobilisation of the protein on the sensor chips, the peptides were tested at increasing concentrations between 2.5 µM and 50 µM. […] Binding experiments were next repeated using BLI to confirm the recognition.
Assessment of binding kinetics and affinity between pm59 peptides and CD59 was performed at 25 °C using standard protocols on a BIACORE 3000 system (GE Healthcare, Little Chalfont, UK) with a research-grade CM5 (Carboxymethyl dextran) sensor chip and using commercial CD59 (ab134887) obtained from Abcam (Cambridge, UK). After chip preparation according to the manufacturer’s guidelines and surface activation, CD59 was immobilised onto the chip at a density of 4000 RU (0.5 mg/mL in 10 μL/min) on a NaAc buffer at pH 4.5. Bovine serum albumin (BSA) was immobilised on flow cell 2 to serve as reference. All surfaces were blocked with a 7′ injection of 1 M ethanolamine at pH 8.5.
The bicyclic acetylated CD59-targeting peptides were diluted in HBS-EP buffer (GE Healthcare, Little Chalfont, UK) and injected over the flow cells at a flow rate of 30 μL/min and concentrations ranging from 1 μM to 30 μM. Association of the complexes was allowed for 120 s and dissociation for 240 s. Regeneration of the surfaces was obtained by the sequential injection of 5 mM NaOH pulses (10 μL/min) until the established baseline was reached. Kinetics and binding data were fitted to a 1:1 stoichiometric interaction model using the global data analysis of the BIAevaluation software (GE Healthcare, Little Chalfont, UK) and Graphpad (Graphpad software, San Diego, CA, USA).

recombinant human CD59 [2] = molecular target: T1, recombinant human CD59; experiment: Biolayer Interferometry (BLI) direct binding assay; details: for kon / koff: CD59 on AR2G sensor, Kinetic Buffer, 1:1 fit; for kon: read-out: ka; for koff: read-out: kdis
Description: as §1
The BLI technique was used to assess the binding of the peptides towards the human recombinant CD59 protein (Abcam code ab134887). The protein was efficiently immobilized at 15 μg/mL in 10 mM NaAc at pH 4.5 on a AR2G sensor chip (Sartorius) according to the manufacturer’s instructions. An unmodified sensor chip was used as blank. The peptides were tested at increasing concentrations from 5 µM to 50 µM dissolved in Kinetic Buffer (PBS containing 0.02% Tween20, 0.1% BSA, 0.05% sodium azide) and using the same running buffer. All analyses were carried out at 25 °C; 10 mM NaOH was used to regenerate the chip surface. All mathematical manipulations were performed using the Octet Analysis Studio 12.2 software from Sartorius. Data were fitted assuming a 1:1 Langmuir binding model determining the KDs by the global analysis mode. Binding curves were exported and charted using GraphPad software, vers. 5.

[3] = molecular target: T2, human recombinant CD59 protein; experiment: SPR; CD59 immobilised on a CM5 chip (4000 RU, NaAc buffer pH 4.5), BSA on the reference flow cell; peptides in HBS-EP injected at 30 μL/min, 25 °C, BIACORE 3000; 1:1 Langmuir model; details: both partners purified
[4] = molecular target: T2, human recombinant CD59 protein; experiment: BLI; CD59 immobilised at 15 μg/mL in 10 mM NaAc pH 4.5 on an AR2G sensor; peptides 5 µM to 50 µM in Kinetic Buffer (PBS, 0.02% Tween20, 0.1% BSA, 0.05% sodium azide), 25 °C; 1:1 Langmuir model; details: both partners purified
[5] = 25 °C, average over tested peptide concentrations

| Molecule | kon (recombinant human CD59 [1]) [M⁻¹ s⁻¹] | kon (recombinant human CD59 [2]; [5]) [M⁻¹ s⁻¹] | koff (recombinant human CD59 [2]; [5]) [s⁻¹] | KD at 5 μM [3] [µM] | KD at 10 μM [3] [µM] | KD at 20 μM [3] [µM] | KD at 30 μM [3] [µM] | Kd [3] [µM] | ka at 5 μM [3] [M⁻¹ s⁻¹] | ka at 10 μM [3] [M⁻¹ s⁻¹] | ka at 20 μM [3] [M⁻¹ s⁻¹] | ka at 30 μM [3] [M⁻¹ s⁻¹] | kd at 5 μM [3] [s⁻¹] | kd at 10 μM [3] [s⁻¹] | kd at 20 μM [3] [s⁻¹] | kd at 30 μM [3] [s⁻¹] | koff [3] [s⁻¹] | KD at 10 μM [4] [µM] | KD at 20 μM [4] [µM] | KD at 30 μM [4] [µM] | also measured |
| --- | --- | --- | --- | --- | --- | --- | --- | --- | --- | --- | --- | --- | --- | --- | --- | --- | --- | --- | --- | --- | --- |
| CC(=O)N[C@H]1CSCc2cc3cc(c2)CSC[C@H](NC(=O)[C@H](CC(C)C)NC(=O)[C@H](Cc2ccc(O)cc2)NC(=O)[C@H](CCCCN)NC(=O)[C@H](CC(N)=O)NC(=O)[C@H](CC(N)=O)NC1=O)C(=O)N[C@@H](CCC(N)=O)C(=O)N[C@@H](Cc1ccc(O)cc1)C(=O)N[C@@H](Cc1ccc(O)cc1)C(=O)N[C@@H](CO)C(=O)N[C@@H]([C@@H](C)O)C(=O)N1CCC[C@H]1C(=O)N[C@H](C(N)=O)CSC3 [pm59md] (Ac-CNNKYLCQYYSTPC-NH2; linker 1-7-14 via TBMB) | 2930 | 919 | 0.00333 |  |  |  |  |  |  |  |  |  |  |  |  |  |  |  |  |  | Kd (recombinant human CD59 [2]; OCTET R8, CD59 immobilised on AR2G sensor, Kinetic Buffer (PBS, 0.02% Tween20, 0.1% BSA, 0.05% sodium azide), 25 °C, 1:1 Langmuir fit, average over tested peptide concentrations): 4.39 µM |
| CC(=O)N[C@H]1CSCc2cc3cc(c2)CSC[C@H](NC(=O)[C@H](CC(C)C)NC(=O)[C@H](Cc2ccc(O)cc2)NC(=O)[C@H](CCCCN)NC(=O)[C@H](CC(N)=O)NC1=O)C(=O)N[C@@H](CCC(N)=O)C(=O)N[C@@H](Cc1ccc(O)cc1)C(=O)N[C@@H](Cc1ccc(O)cc1)C(=O)N[C@@H](CO)C(=O)N[C@@H]([C@@H](C)O)C(=O)N[C@H](C(N)=O)CSC3 [pm59sh] (Ac-CNKYLCQYYSTC-NH2; linker 1-6-12 via TBMB) | 2930 | 463 | 0.00268 |  |  |  |  |  |  |  |  |  |  |  |  |  |  |  |  |  |  |
| Ac-CNNKYLACQQYYSTPC-NH2 (also: bicyclic or more (positions not given here)) [pm59ln, long bicyclic paratope-mimicking peptide of MB59 VL CDR1/CDR3, three cysteines linked by TBMB, N-acetylated, C-amidated] |  |  |  |  |  |  |  |  |  |  |  |  |  |  |  |  |  |  |  |  | binding to CD59 (in words) (recombinant human CD59 [1]; immobilised CD59, peptide at increasing concentrations between 2.5 µM and 50 µM (Figure 5E)): No significant binding; binding to CD59 (in words) (recombinant human CD59 [2]; immobilised CD59, peptide at increasing concentrations between 2.5 µM and 50 µM (Figure 5F)): No significant binding |
| Ac-CNKYLCQYYSTC-NH2 (linker 1-6-12 via TBMB; SMILES CC(=O)N[C@H]1CSCc2cc3cc(c2)CSC[C@H](NC(=O)[C@H](CC(C)C)NC(=O)[C@H](Cc2ccc(O)cc2)NC(=O)[C@H](CCCCN)NC(=O)[C@H](CC(N)=O)NC1=O)C(=O)N[C@@H](CCC(N)=O)C(=O)N[C@@H](Cc1ccc(O)cc1)C(=O)N[C@@H](Cc1ccc(O)cc1)C(=O)N[C@@H](CO)C(=O)N[C@@H]([C@@H](C)O)C(=O)N[C@H](C(N)=O)CSC3, designed from key residues of the CDR1 and CDR3 loops of the VL chain of the scFv MB59, flanking residues changed to cysteines; also called short version of pm59; source: synthetic peptide (Fmoc solid phase, bi-cyclised with TBMB, RP-HPLC purified)) [pm59sh, bicyclic paratope-mimicking peptide (short version)] |  |  |  | 0.469 | 1.64 | 2.61 | 4.46 | 2.42 | 7260 | 3010 | 1560 | 1230 | 0.0034 | 0.00493 | 0.00408 | 0.00548 | 0.00469 | 4.98 | 9.92 | 8.45 | KD at 7.5 μM [3]: 1.24 µM; KD at 15 μM [3]: 2.39 µM; KD at 25 μM [3]: 4.13 µM; ka at 7.5 μM [3]: 4210 M⁻¹ s⁻¹; ka at 15 μM [3]: 2050 M⁻¹ s⁻¹; ka at 25 μM [3]: 1160 M⁻¹ s⁻¹; kd at 7.5 μM [3]: 0.00523 s⁻¹; kd at 15 μM [3]: 0.0049 s⁻¹; kd at 25 μM [3]: 0.00481 s⁻¹; KD at 5 μM [4]: 0.865 µM; KD at 40 μM [4]: 15 µM; KD at 50 μM [4]: 15.9 µM; Kd [4]: 9.18 µM; ka at 5 μM [4]: 1130 M⁻¹ s⁻¹; ka at 10 μM [4]: 524 M⁻¹ s⁻¹; ka at 20 μM [4]: 294 M⁻¹ s⁻¹; ka at 30 μM [4]: 451 M⁻¹ s⁻¹; ka at 40 μM [4]: 197 M⁻¹ s⁻¹; ka at 50 μM [4]: 178 M⁻¹ s⁻¹ |
| Ac-CNNKYLCQYYSTPC-NH2 (linker 1-7-14 via TBMB; SMILES CC(=O)N[C@H]1CSCc2cc3cc(c2)CSC[C@H](NC(=O)[C@H](CC(C)C)NC(=O)[C@H](Cc2ccc(O)cc2)NC(=O)[C@H](CCCCN)NC(=O)[C@H](CC(N)=O)NC(=O)[C@H](CC(N)=O)NC1=O)C(=O)N[C@@H](CCC(N)=O)C(=O)N[C@@H](Cc1ccc(O)cc1)C(=O)N[C@@H](Cc1ccc(O)cc1)C(=O)N[C@@H](CO)C(=O)N[C@@H]([C@@H](C)O)C(=O)N1CCC[C@H]1C(=O)N[C@H](C(N)=O)CSC3, designed from key residues of the CDR1 and CDR3 loops of the VL chain of the scFv MB59, flanking residues changed to cysteines; also called medium version of pm59; source: synthetic peptide (Fmoc solid phase, bi-cyclised with TBMB, RP-HPLC purified)) [pm59md, bicyclic paratope-mimicking peptide (medium version)] |  |  |  | 0.902 | 1.09 | 3.1 | 4.39 | 3.13 | 7080 | 4830 | 2290 | 1270 | 0.00638 | 0.00526 | 0.0071 | 0.00627 | 0.00582 | 1.23 | 4.12 | 6.09 | KD at 2.5 μM [3]: 1.38 µM; KD at 40 μM [3]: 3.88 µM; KD at 50 μM [3]: 4.9 µM; ka at 2.5 μM [3]: 5960 M⁻¹ s⁻¹; ka at 40 μM [3]: 1320 M⁻¹ s⁻¹; ka at 50 μM [3]: 980 M⁻¹ s⁻¹; kd at 2.5 μM [3]: 0.00814 s⁻¹; kd at 40 μM [3]: 0.00511 s⁻¹; kd at 50 μM [3]: 0.0048 s⁻¹; KD at 25 μM [4]: 6.52 µM; KD at 40 μM [4]: 8.38 µM; ka at 5 μM [4]: 963 M⁻¹ s⁻¹; ka at 10 μM [4]: 1560 M⁻¹ s⁻¹; ka at 20 μM [4]: 889 M⁻¹ s⁻¹; ka at 25 μM [4]: 783 M⁻¹ s⁻¹; ka at 30 μM [4]: 750 M⁻¹ s⁻¹; ka at 40 μM [4]: 564 M⁻¹ s⁻¹ |
